Literature values as cited in patent publication US20190076452A1, “THERAPEUTIC COMBINATIONS FOR TREATING NEOPLASIA” (MEDIMMUNE LIMITED, priority 2014, published 2019).

Tested on: advanced melanoma
Conditions: compared to the standard of care (temozolomide or dacarbazine); cited from earlier work

B1: tremelimumab: human IgG2 monoclonal antibody highly selective for CTLA-4 (antibody)
VH: GVVQPGRSLRLSCAASGFTFSSYGMHWVRQAPGKGLEWVAVIWYDGSNKYYADSVKGRFTISRDNSKNTLYLQMNSLRAEDTAVYYCARDPRGATLYYYYYGMDVWGQGTTVTVSSASTKGPSVFPLAPCSRSTSESTAALGCLVKDYFPEPVTVSWNSGALTSGVH
VL: PSSLSASVGDRVTITCRASQSINSYLDWYQQKPGKAPKLLIYAASSLQSGVPSRFSGSGSGTDFTLTISSLQPEDFATYYCQQYYSTPFTFGPGTKVEIKRTVAAPSVFIFPPSDEQLKSGTASVVCLLNNFYPREAKV
overall survival of patients: did not significantly increase
